Data: patent publication US11535650 (RA PHARMACEUTICALS, dated 2022)
Starred links: 1 amine or outer side, 2 acyl side, 3 side chain; linkers in the order of their positions; H or OH if unused. Positions of bridges follow the written chain, without caps; N, C: chain ends. Non-standard residues stand in square brackets, D forms with d. Primed or numbered codes have the meaning given here. No end group written: not given here. mXylyl(3) = bridging moiety between the two residues given in brackets; Phe(3-CH2NH2) = O=C([C@H](Cc1cccc(CN[*:3])c1)N[*:1])[*:2]; Trp(7-aza) = N[C@@H](Cc1c[nH]c2ncccc12)C(=O)O; mXylyl(4) = bridging moiety between residues; hPhe(3-Cl) = N[C@@H](CCc1cccc(Cl)c1)C(=O)O; 2Nal = N[C@@H](Cc1ccc2ccccc2c1)C(=O)O; NMeD = CN[C@@H](CC(=O)O)C(=O)O; Chg = N[C@H](C(=O)O)C1CCCCC1; Phg = N[C@H](C(=O)O)c1ccccc1; Tle = CC(C)(C)[C@H](N)C(=O)O; NMeS = CN[C@@H](CO)C(=O)O; Ac5c = NC1(C(=O)O)CCCC1; Nva = CCC[C@H](N)C(=O)O; Thp = NC1(C(=O)O)CCOCC1; Aib = CC(C)(N)C(=O)O

How the values were obtained:
human C5 protein [1] = target: T1, human C5 protein (human, UniProt P01031 19-673; P01031 678-1676); assay: cell-based or functional assay
human C5 protein [2] = target: T1, human C5 protein; assay: cell-based or functional assay; remark: listed apart in the source

Row | Binder | Avg. IC50, hemolysis assay (C5 depleted sera + purified human C5) (human C5 protein [1]) [nM] | Avg. IC50, human hemolysis assay (complete human sera) (human C5 protein [2]) [nM]
1 | Ac-CVERFCD[Tle]Y[Trp(7-aza)]E[hPhe(3-Cl)]P[Chg][Nva] (linker 1-6 via mXylyl(3)) [R3179] | 83 | 
2 | VERFCDGYWEYPGV ([cyclo-thioalkyl(1,5)]V-E-R-F-C-D-Tbg-Y-azaTrp-E-Y-P-Chg-Nvl) [R3184] | 4 | 
3 | Ac-KVERFD[NMeD][Tle]Y[Trp(7-aza)]EYP[Chg]K(C16)-NH2 (lactam 1-6) [R3194] | 15.5 | 
4 | Ac-CVERFCD[Tle]Y[Phe(3-CH2NH2)]EYP[Chg][Nva] (linker 1-6 via mXylyl(3)) [R3181] | 1500 | 
5 | Ac-CVERFCD[Tle]Y[Trp(7-aza)]E[2Nal]P[Chg][Nva] (linker 1-6 via mXylyl(3)) [R3180] | 29 | 
6 | Ac-[Nva]C[Phg]T[Trp(7-aza)]EF[NMeS]AC[Nva]-NH2 (linker 2-10 via mXylyl(4)) [R3100] |  | 626
7 | Ac-KVERFD[NMeD][Tle]Y[Trp(7-aza)]EYP[Chg]K-NH2 (lactam 1-6; SMILES CC(=O)N[C@H]1CCCCNC(=O)C[C@@H](C(=O)N(C)[C@@H](CC(=O)O)C(=O)N[C@H](C(=O)N[C@@H](Cc2ccc(O)cc2)C(=O)N[C@@H](Cc2c[nH]c3ncccc23)C(=O)N[C@@H](CCC(=O)O)C(=O)N[C@@H](Cc2ccc(O)cc2)C(=O)N2CCC[C@H]2C(=O)N[C@H](C(=O)N[C@@H](CCCCN)C(N)=O)C2CCCCC2)C(C)(C)C)NC(=O)[C@H](Cc2ccccc2)NC(=O)[C@H](CCCNC(=N)N)NC(=O)[C@H](CCC(=O)O)NC(=O)[C@H](C(C)C)NC1=O) [R3192] | 1.5 | 
8 | Ac-[Nva]C[Phg][Aib][Trp(7-aza)]EY[NMeS]HC[Nva]-NH2 (linker 2-10 via mXylyl(3)) [R3096] |  | > 50000
9 | Ac-[Nva]C[Phg]T[Trp(7-aza)]DY[NMeS]AC[Nva]-NH2 (linker 2-10 via mXylyl(4)) [R3097] |  | > 100000
10 | Ac-CVERFC[Thp][Tle]Y[Trp(7-aza)]EYP[Chg][Nva] (linker 1-6 via mXylyl(3)) [R3186] | 18 | 
11 | Ac-[Nva]C[Phg]T[Trp(7-aza)]NY[NMeS]AC[Nva]-NH2 (linker 2-10 via mXylyl(4)) [R3099] |  | > 100000
12 | Ac-CAERFCD[Tle]Y[Trp(7-aza)]EYP[Phg]K(C16) (linker 1-6 via mXylyl(3)) [R3189] | 81.5 | 
13 | Ac-CVERFC[Ac5c][Tle]Y[Trp(7-aza)]EYP[Chg][Nva] (linker 1-6 via mXylyl(3)) [R3185] | 12.5 | 
14 | Ac-[Nva]C[Phg]T[Trp(7-aza)]QY[NMeS]AC[Nva]-NH2 (linker 2-10 via mXylyl(4)) [R3098] |  | > 100000
15 | Ac-CVERFCD[Tle]Y[Trp(7-aza)]EWP[Chg][Nva] (linker 1-6 via mXylyl(3)) [R3177] | 12 | 
